Measurements: US20030223975, “Transcriptional regulation of PTP-1B” (Cold Spring Harbor Laboratory, published 2003)

B1: PTP1B enhancer -167/-132 (dsDNA)
DNA 1: ACGCGCGCTATTAGATATCTCGCGGTGCTGGGGCCA
DNA 2: TGGCCCCAGCACCGCGAGATATCTAATAGCGCGCGT
B2: PTP1B enhancer -155/-132 (dsDNA)
DNA 1: AGATATCTCGCGGTGCTGGGGCCA
DNA 2: TGGCCCCAGCACCGCGAGATATCT

Key:
[1] = molecular target: T1, YB-1 (B-TEP, purified from Rat1 nuclear extract) (Rattus norvegicus, UniProt P62961 SEQ:1-322); test: pulldown; purified on -167/-132 affinity column, eluted at 0.8 M NaCl; complex B in EMSA
T1 sequence (P62961 other isoform, or with tags, fused parts or gaps): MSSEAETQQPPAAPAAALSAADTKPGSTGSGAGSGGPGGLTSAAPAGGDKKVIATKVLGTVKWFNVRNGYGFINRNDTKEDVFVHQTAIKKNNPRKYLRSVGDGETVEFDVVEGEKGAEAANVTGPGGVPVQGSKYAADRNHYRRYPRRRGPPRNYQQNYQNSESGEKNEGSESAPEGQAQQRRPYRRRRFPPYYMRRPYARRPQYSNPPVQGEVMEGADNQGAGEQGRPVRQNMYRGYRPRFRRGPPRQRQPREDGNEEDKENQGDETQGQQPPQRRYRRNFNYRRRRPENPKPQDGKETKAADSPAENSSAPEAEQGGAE
Method: To purify proteins within the TEP sequence complexes, nuclear extracts were subjected to SP-Sepharose chromatography followed by DNA-affinity chromatography (FIG. 3A). Nuclear extracts (approximately 50 mg) were obtained from Rat1 cells as described above. The extracts were dialyzed against starting buffer (0.1 M NaCl in 20 mM HEPES pH 7.9, 20 mM NaF, 1 mM Na₃VO₄, 1 mM Na₄P₂O₇, 0.125 μM okadaic acid, 1 mM EDTA, 1 mM EGTA, 1 mM DTT, 0.5 mM PMSF, 1 μg/ml leupeptin, 1 μg/ml aprotinin, 1 μg/ml pepstatin, 0.2% NP-40, 5% glycerol) and then applied to SP Sepharose (20 ml) (Pharmacia Biotech, Piscataway, N.J.) equilibrated with the starting buffer. Proteins were eluted in a stepwise manner with 0.2, 0.3, 0.4, 0.6, and 0.8 M NaCl containing nuclear extraction buffer. Each fraction (5 μl aliquots) was assayed by EMSA using ³²P-labelled probes as described above. Fractions containing Complex B (detected by the ³²P-labeled −167/−132 probe, see FIG. 2B) were dialyzed to 0.2 M NaCl containing starting buffer and then applied to a double-stranded DNA-conjugated affinity column. The sequence of the DNA used for affinity chromatography corresponded to nucleotides −167 to −132 from the transcription start site as follows:
The DNA was biotinylated according to standard methods. […]

GST-YB-1 = GST-YB-1 (UniProt P67809 P67809:1-324); test: EMSA; 1 or 10 ng GST-YB-1; binding shown in figure; conditions: tags: N-terminal GST fusion, expressed in E. coli BL21 (plasmid gift of K. Kohno)
Chain of GST-YB-1 (P67809 whole entry, the tested form may be a part, one chain of several): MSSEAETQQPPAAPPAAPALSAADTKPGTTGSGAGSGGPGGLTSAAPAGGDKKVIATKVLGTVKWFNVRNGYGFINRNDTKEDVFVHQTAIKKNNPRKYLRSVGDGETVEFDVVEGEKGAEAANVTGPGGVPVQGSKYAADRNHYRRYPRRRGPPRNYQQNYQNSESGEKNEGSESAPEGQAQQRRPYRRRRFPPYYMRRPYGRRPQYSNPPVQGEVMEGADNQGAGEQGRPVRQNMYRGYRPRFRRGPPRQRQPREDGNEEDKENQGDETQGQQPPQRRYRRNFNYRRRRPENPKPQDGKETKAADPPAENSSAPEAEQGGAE
Source text: Complex formation of YB-1 with the PTP1B enhancer was confirmed using purified YB-1 from a different source. Expression plasmids for GST and for GST-YB-1 (gift from Dr. K. Kohno) (see Izumi et al., Nucleic Acids Res. 29:1200-07 (2001)) were each separately transfected into E. coli BL21 cells. Recombinant proteins were expressed and purified (see Frangioni and Neel, Anal. Biochem. 210:179-87 (1993)) and analyzed by SDS-PAGE as shown in FIG. 9B (left panel). The interaction between GST-tagged YB-1 and the PTP1B enhancer probe was analyzed by EMSA. Purified GST or GST-YB-1 proteins (1 or 10 ng) were combined with double-stranded DNA ³²P-labelled probe −167/−132 (see above) in the absence or presence of unlabeled double-stranded DNA probe −167/−132 or the deletion mutant probe −167/−132 (Δ−155/−144) (see above), which were tested as competitors of complex formation.

[2] = molecular target: T1, YB-1 (B-TEP, purified from Rat1 nuclear …); test: EMSA; 10 ng YB-1; complex supershifted by anti-YB-1; anti-GATA1/GATA2 as controls; 25 C; conditions: label: 32P (EMSA) or biotin (pull-down)
Method: To further examine the interaction of YB-1 with the PTP1B enhancer, an EMSA was performed using purified YB-1 (10 ng) and the double-stranded DNA ³²P-labelled −155/−132 probe (see methods described above). A YB-1/DNA probe complex was detected by incubating the complex with the anti-YB-1 antibody (see above). Included as controls were anti-GATA1 (sc266X) and anti-GATA2 (sc-9008X) antibodies (Santa Cruz Biotechnology, Inc., Santa Cruz, Calif.). Purified YB-1 was incubated without antibody or separately with each antibody for 1 hour at 4° C., followed by addition of the DNA probe for 20 minutes at 25° C.

Binder | binding result [1] | binding result (GST-YB-1) | binding result [2]
B1 | binds | binds | –
B2 | – | – | binds
